Paper PMC6202051, “The DWORF micropeptide enhances contractility and prevents heart failure in a mouse model of dilated cardiomyopathy” (eLife, 2018)
Values belong to the molecule of their own block, whether it stands above or below them. Ends that are not written are not given here. YFP = yellow fluorescent protein

Tests used:
mCerulean (Cer)-SERCA2a [1] = molecular target: mCerulean (Cer)-SERCA2a (UniProt O55143); assay: FRET or BRET; progressive acceptor photobleaching of YFP in live transfected AAV-293 cells; donor against acceptor fluorescence, a linear relationship taken as a 1:1 complex
mCerulean (Cer)-SERCA2a [2] = molecular target: T1, mCerulean (Cer)-SERCA2a (UniProt O55143-2 1-998); assay: as above; conditions: partners not purified
T1 construct: SERCA2a, the predominant cardiac isoform of the sarco(endo)plasmic reticulum Ca2+-ATPase; also called SR Ca2+-ATPase; source: AAV-293 cells, transiently transfected, in live cells
T1 sequence (O55143 other isoform, or with tags, fused parts or gaps): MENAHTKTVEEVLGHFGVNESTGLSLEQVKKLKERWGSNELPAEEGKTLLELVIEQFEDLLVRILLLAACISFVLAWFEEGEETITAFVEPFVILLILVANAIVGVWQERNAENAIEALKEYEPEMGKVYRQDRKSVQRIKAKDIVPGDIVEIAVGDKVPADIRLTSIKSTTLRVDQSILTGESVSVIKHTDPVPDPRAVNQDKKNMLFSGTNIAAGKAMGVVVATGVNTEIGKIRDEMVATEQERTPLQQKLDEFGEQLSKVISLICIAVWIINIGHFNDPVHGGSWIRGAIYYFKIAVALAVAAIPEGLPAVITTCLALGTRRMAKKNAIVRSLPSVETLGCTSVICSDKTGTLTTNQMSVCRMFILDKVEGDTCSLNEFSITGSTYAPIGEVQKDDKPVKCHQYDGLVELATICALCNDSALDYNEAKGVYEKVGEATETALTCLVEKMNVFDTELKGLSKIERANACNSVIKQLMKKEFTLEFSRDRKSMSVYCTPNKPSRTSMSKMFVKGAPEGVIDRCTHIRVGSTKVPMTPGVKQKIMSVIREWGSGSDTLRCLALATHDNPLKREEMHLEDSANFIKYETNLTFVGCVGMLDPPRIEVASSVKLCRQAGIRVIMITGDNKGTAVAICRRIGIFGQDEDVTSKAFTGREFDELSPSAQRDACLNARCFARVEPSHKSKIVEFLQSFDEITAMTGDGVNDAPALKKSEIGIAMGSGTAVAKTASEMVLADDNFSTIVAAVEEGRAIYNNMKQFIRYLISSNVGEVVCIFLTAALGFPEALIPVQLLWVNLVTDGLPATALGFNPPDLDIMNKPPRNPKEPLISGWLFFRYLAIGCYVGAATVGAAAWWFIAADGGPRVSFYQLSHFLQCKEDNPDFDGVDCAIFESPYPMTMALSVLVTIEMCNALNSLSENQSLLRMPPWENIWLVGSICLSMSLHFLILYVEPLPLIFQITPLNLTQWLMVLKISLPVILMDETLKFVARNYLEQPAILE

Sequence of mCerulean (Cer)-SERCA2a (UniProt O55143) (O55143 other isoform, or with tags, fused parts or gaps): as above

stoichiometry N (mCerulean (Cer)-SERCA2a [1]): 1
Molecule: yellow fluorescent protein (YFP)-DWORF (peptide)

stoichiometry N (mCerulean (Cer)-SERCA2a [2]): 1
B1: yellow fluorescent protein (YFP)-PLN (natural protein, UniProt P61014 1-52, looked up)
chain: {YFP}-MEKVQYLTRSAIRRASTIEMPQQARQNLQNLFINFCLILICLLLICIIVMLL
modifications: cysteine pairing not given here
notes: phospholamban (PLN); In the PLN-PLN and PLN-DWORF FRET experiments one partner must have carried the donor (Cer); it may be another species (e.g. canine) in the cited FRET work; also called phospholamban; source: AAV-293 cells, transiently transfected, in live cells
